B1: JNK1 (as used in the fluorescence polarization titrations) (enzyme)
chain: MSRSKRDNNFYSVEIGDSTFTVLKRYQNLKPIGSGAQGIVCAAYDAILERNVAIKKLSRPFQNQTHAKRAYRELVLMKCVNHKNIIGLLNVFTPQKSLEEFQDVYIVMELMDANLCQVIQMELDHERMSYLLYQMLCGIKHLHSAGIIHRDLKPSNIVVKSDCTLKILDFGLARTAGTSFMMTPYVVTRYYRAPEVILGMGYKENVDLWSVGCIMGEMVCHKILFPGRDYIDQWNKVIEQLGTPCPEFMKKLQPTVRTYVENRPKYAGYSFEKLFPDVLFPADSEHNKLKASQARDLLSKMLVIDASKRISVDEALQHPYINVWYDPSEAEAPPPKIPDKQLDEREHTIEEWKELIYKEVMDLEERTKNGVIRGQPSPLGAAVINGSQHPSSSSSVNDVSSMSTDPTLASDTDSSLEAAAGPLGCCR

Ends that are not written are not given here.

One assay has as its target GAB3+ peptide. In words: FP.
In turn, B1 yielded a Kd of 13.2 µM.

A further assay has as its target B1. In words: FP.
RPQDLNL (not fully specified) [MKP5 peptide] returned a Kd of 19.3 µM.

Turning to RPTRLSL (not fully specified) [IRS1 peptide], the Kd stood at 3.5 µM.

As to KKKSKPLNLKIH (not fully specified) [KSR2 peptide], the affinity, expressed as Kd, was 24.7 µM.

For the molecule RPKSLQL (not fully specified) [DOCK5 peptide], the affinity, expressed as Kd, was 5.1 µM.

The molecule RPTTLPL (not fully specified) [PDE4B peptide] returned a Kd of 16.4 µM.

With RPKSLNL (not fully specified) [APBA2 peptide], binding was put at a Kd of 10.8 µM.

In the case of RPASLNL (not fully specified) [DOCK7 peptide], the Kd is 7.3 µM.

For RPTSLAL (not fully specified) [MYO9B peptide], the Kd is 15.9 µM.

DPLHPTL (also: non-native Glu flanks added at both ends, number not given here) [ATF7 peptide]: the affinity, expressed as Kd, was 21.1 µM.

RHRDKRLSLNLP (not fully specified) [GAB3 peptide]: binding was characterised by a dissociation constant (Kd) of 14.5 µM.

For RKHKDLYLPL (not fully specified) [DCX peptide], the Kd was found to be 16.7 µM.

The target in another assay is ERK2 (as used in the fluorescence polarization titrations) (human, UniProt P28482 1-360). Nature of the assay: FP.
For KEKSGSLKLRIP (not fully specified) [CCNT2 peptide], the Kd came to 14.4 µM.

Turning to RPQDLNL (not fully specified) [MKP5 peptide], the Kd is 84.7 µM.

As for KKKSKPLNLKIH (not fully specified) [KSR2 peptide], binding was characterised by a dissociation constant (Kd) of 13.5 µM.

KRRSLRVHIP (not fully specified) [AAKG2 peptide] gave a Kd of 17.5 µM.

With RPKSLQL (not fully specified) [DOCK5 peptide], the affinity, expressed as Kd, was 31.8 µM.

KKIQPKLSLT (not fully specified) [JAZF1 peptide] returned a Kd of 15 µM.

RPASLNL (not fully specified) [DOCK7 peptide] showed a dissociation constant Kd of 51.2 µM.

Molecule RHRDKRLSLNLP (not fully specified) [GAB3 peptide] yielded a Kd of 22.6 µM.

In a further assay the target is p38α (as used in the fluorescence polarization titrations) (human, UniProt Q16539 1-360). In words: FP.
Take KEKSGSLKLRIP (not fully specified) [CCNT2 peptide]: binding was put at a Kd of 24.5 µM.

Take RPTRLSL (not fully specified) [IRS1 peptide]: the Kd was 74.6 µM.

In turn, KKKSKPLNLKIH (not fully specified) [KSR2 peptide] displayed a Kd of 4.9 µM.

For the molecule LQRKKPPWLKLDIP (not fully specified) [RHDF1 peptide], the Kd was 1.2 µM.

Regarding KRRSLRVHIP (not fully specified) [AAKG2 peptide], the Kd worked out at 8.2 µM.

In the case of KKIQPKLSLT (not fully specified) [JAZF1 peptide], binding was put at a Kd of 8.9 µM.

Molecule RHRDKRLSLNLP (not fully specified) [GAB3 peptide] had a Kd of 5.2 µM.

RKHKDLYLPL (not fully specified) [DCX peptide] came in with a Kd of 29.5 µM.

The values are drawn from publication PMC4670726 (2015).
